Data reported in patent publication US6084068, “Elongin A and C functional domains” (Oklahoma Medical Research Foundation, dated 2000).

T1: Elongin BC complex (wild type rat Elongin B and C) (rat, UniProt P62870)
T1 chain 1: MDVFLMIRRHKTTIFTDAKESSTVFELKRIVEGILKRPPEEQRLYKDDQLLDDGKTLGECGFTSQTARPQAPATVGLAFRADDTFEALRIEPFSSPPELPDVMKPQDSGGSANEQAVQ
T1 chain 2: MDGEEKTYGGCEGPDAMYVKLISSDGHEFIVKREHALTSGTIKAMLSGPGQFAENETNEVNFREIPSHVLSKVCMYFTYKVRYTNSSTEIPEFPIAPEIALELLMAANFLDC


Biological target: T1, Elongin BC complex (wild type rat …)
Test: refolded with wild type Elongin B and C; TSK SP-NPR HPLC, SDS-PAGE, silver staining

Binder	binding result
Elongin A internal deletion mutant Δ611-650 (other) MAAESALQVVEKLQARLAANPDPKKLLKYLKKLSVLPITVDILVETGVGKTVNSFRKHEQVGNFARDLVAQWKKLVPVERNNEAEDQDFEKSNSRKRPRDVPQQEEEAEGNYQESWQASGSQPYSPEHRQKKHRKLPELERPHKVAHGHERRDERKRCHKVSPPYSSDPESSDYGHVQSPPPSSPHQMYTDLSRSPEMDQEPIVSHPKPGKVHSNTFQDRLGVSHLGEHQGKGAVSQNKPHKSSHKEKRPVDARGDEKSSVMGREKSHKASSKEESRRLLSEDSAKEKLPSSVVKKEKDREGNSLKKKLSPALDVASDNHFKKPKHKDSEKIKSDKNKQSVDSVDSGRGTGDPLPRAKDKVPNNLKAQEGKVRTNSDRKSPGSLPKVEEMDMDDEFEQPTMSFESYLSYDQPRKKKKKVVKTSGTALGEKGLKKKDSKSTSKNLNSAQKLPKANENKSDKLQPAGAEPTRPRKVPTDVLPALPDIPLPAIQTNYRPLPSLELISSFQPKRKAFSSPQEEEEAGFTGRRMNSKMQVYSGSKCAYLPKMMTLHQQCIRVLKNNIDSIFEVGGVPYSVLEPVLERCTPDQLYRIEECNHVLIEETDQLWKVHCHANKPKGRQAKMAFVNSVAKPPRDVRRRQEKFGTGGAAVPEKVRIKPAPYTTGSSHVPASNSSSSFHSSPEELAYEGPSTSSAHLAPVASSSVSYDPRKPAVKKIAPMMAKTIKAFKNRFSRR	binds
Elongin A internal deletion mutant Δ651-690 (other) MAAESALQVVEKLQARLAANPDPKKLLKYLKKLSVLPITVDILVETGVGKTVNSFRKHEQVGNFARDLVAQWKKLVPVERNNEAEDQDFEKSNSRKRPRDVPQQEEEAEGNYQESWQASGSQPYSPEHRQKKHRKLPELERPHKVAHGHERRDERKRCHKVSPPYSSDPESSDYGHVQSPPPSSPHQMYTDLSRSPEMDQEPIVSHPKPGKVHSNTFQDRLGVSHLGEHQGKGAVSQNKPHKSSHKEKRPVDARGDEKSSVMGREKSHKASSKEESRRLLSEDSAKEKLPSSVVKKEKDREGNSLKKKLSPALDVASDNHFKKPKHKDSEKIKSDKNKQSVDSVDSGRGTGDPLPRAKDKVPNNLKAQEGKVRTNSDRKSPGSLPKVEEMDMDDEFEQPTMSFESYLSYDQPRKKKKKVVKTSGTALGEKGLKKKDSKSTSKNLNSAQKLPKANENKSDKLQPAGAEPTRPRKVPTDVLPALPDIPLPAIQTNYRPLPSLELISSFQPKRKAFSSPQEEEEAGFTGRRMNSKMQVYSGSKCAYLPKMMTLHQQCIRVLKNNIDSIFEVGGVPYSVLEPVLERCTPDQLYRIEECNHVLIEETDQLWKVHCHRDFKEERPEEYESWREMYLRLQDAREQRLRLLTNNIRSAEKVRIKPAPYTTGSSHVPASNSSSSFHSSPEELAYEGPSTSSAHLAPVASSSVSYDPRKPAVKKIAPMMAKTIKAFKNRFSRR	binds
Elongin A internal deletion mutant Δ566-585 (other) MAAESALQVVEKLQARLAANPDPKKLLKYLKKLSVLPITVDILVETGVGKTVNSFRKHEQVGNFARDLVAQWKKLVPVERNNEAEDQDFEKSNSRKRPRDVPQQEEEAEGNYQESWQASGSQPYSPEHRQKKHRKLPELERPHKVAHGHERRDERKRCHKVSPPYSSDPESSDYGHVQSPPPSSPHQMYTDLSRSPEMDQEPIVSHPKPGKVHSNTFQDRLGVSHLGEHQGKGAVSQNKPHKSSHKEKRPVDARGDEKSSVMGREKSHKASSKEESRRLLSEDSAKEKLPSSVVKKEKDREGNSLKKKLSPALDVASDNHFKKPKHKDSEKIKSDKNKQSVDSVDSGRGTGDPLPRAKDKVPNNLKAQEGKVRTNSDRKSPGSLPKVEEMDMDDEFEQPTMSFESYLSYDQPRKKKKKVVKTSGTALGEKGLKKKDSKSTSKNLNSAQKLPKANENKSDKLQPAGAEPTRPRKVPTDVLPALPDIPLPAIQTNYRPLPSLELISSFQPKRKAFSSPQEEEEAGFTGRRMNSKMQVYSGSKCAYLPKMMTLHQQCIRVLKNNIDSIDQLYRIEECNHVLIEETDQLWKVHCHRDFKEERPEEYESWREMYLRLQDAREQRLRLLTNNIRSAHANKPKGRQAKMAFVNSVAKPPRDVRRRQEKFGTGGAAVPEKVRIKPAPYTTGSSHVPASNSSSSFHSSPEELAYEGPSTSSAHLAPVASSSVSYDPRKPAVKKIAPMMAKTIKAFKNRFSRR	binds

The remaining lines, values ahead:

binding result	Binder
binds	Elongin A internal deletion mutant Δ586-610 (other) MAAESALQVVEKLQARLAANPDPKKLLKYLKKLSVLPITVDILVETGVGKTVNSFRKHEQVGNFARDLVAQWKKLVPVERNNEAEDQDFEKSNSRKRPRDVPQQEEEAEGNYQESWQASGSQPYSPEHRQKKHRKLPELERPHKVAHGHERRDERKRCHKVSPPYSSDPESSDYGHVQSPPPSSPHQMYTDLSRSPEMDQEPIVSHPKPGKVHSNTFQDRLGVSHLGEHQGKGAVSQNKPHKSSHKEKRPVDARGDEKSSVMGREKSHKASSKEESRRLLSEDSAKEKLPSSVVKKEKDREGNSLKKKLSPALDVASDNHFKKPKHKDSEKIKSDKNKQSVDSVDSGRGTGDPLPRAKDKVPNNLKAQEGKVRTNSDRKSPGSLPKVEEMDMDDEFEQPTMSFESYLSYDQPRKKKKKVVKTSGTALGEKGLKKKDSKSTSKNLNSAQKLPKANENKSDKLQPAGAEPTRPRKVPTDVLPALPDIPLPAIQTNYRPLPSLELISSFQPKRKAFSSPQEEEEAGFTGRRMNSKMQVYSGSKCAYLPKMMTLHQQCIRVLKNNIDSIFEVGGVPYSVLEPVLERCTPHRDFKEERPEEYESWREMYLRLQDAREQRLRLLTNNIRSAHANKPKGRQAKMAFVNSVAKPPRDVRRRQEKFGTGGAAVPEKVRIKPAPYTTGSSHVPASNSSSSFHSSPEELAYEGPSTSSAHLAPVASSSVSYDPRKPAVKKIAPMMAKTIKAFKNRFSRR
binds	wild type Elongin A (other) MAAESALQVVEKLQARLAANPDPKKLLKYLKKLSVLPITVDILVETGVGKTVNSFRKHEQVGNFARDLVAQWKKLVPVERNNEAEDQDFEKSNSRKRPRDVPQQEEEAEGNYQESWQASGSQPYSPEHRQKKHRKLPELERPHKVAHGHERRDERKRCHKVSPPYSSDPESSDYGHVQSPPPSSPHQMYTDLSRSPEMDQEPIVSHPKPGKVHSNTFQDRLGVSHLGEHQGKGAVSQNKPHKSSHKEKRPVDARGDEKSSVMGREKSHKASSKEESRRLLSEDSAKEKLPSSVVKKEKDREGNSLKKKLSPALDVASDNHFKKPKHKDSEKIKSDKNKQSVDSVDSGRGTGDPLPRAKDKVPNNLKAQEGKVRTNSDRKSPGSLPKVEEMDMDDEFEQPTMSFESYLSYDQPRKKKKKVVKTSGTALGEKGLKKKDSKSTSKNLNSAQKLPKANENKSDKLQPAGAEPTRPRKVPTDVLPALPDIPLPAIQTNYRPLPSLELISSFQPKRKAFSSPQEEEEAGFTGRRMNSKMQVYSGSKCAYLPKMMTLHQQCIRVLKNNIDSIFEVGGVPYSVLEPVLERCTPDQLYRIEECNHVLIEETDQLWKVHCHRDFKEERPEEYESWREMYLRLQDAREQRLRLLTNNIRSAHANKPKGRQAKMAFVNSVAKPPRDVRRRQEKFGTGGAAVPEKVRIKPAPYTTGSSHVPASNSSSSFHSSPEELAYEGPSTSSAHLAPVASSSVSYDPRKPAVKKIAPMMAKTIKAFKNRFSRR
